# Laboratory results from US20240200091A1, “USE OF PROTOPORPHYRINOGEN OXIDASE” (BEIJING DABEINONG BIOTECHNOLOGY CO., LTD., priority 2021, published 2024).
# What was measured:
# Type in all cases: in vivo
# [1] = system: transgenic soybean plants; test: flumioxazin tolerance of transgenic soybean plants (spray, grade of pesticide damage); details: for The grade of pesticide damage/plant: grade 0 / The grade of pesticide damage/plant: grade 1 / The grade of pesticide damage/plant: grade 2 / The grade of pesticide damage/plant: grade 3: 7 DAT, number of plants of 16 per genotype, grades
# [2] = system: transgenic soybean plants; test: saflufenacil tolerance of transgenic soybean plants (spray, grade of pesticide damage); set-up: key to damage levels rated at grade: grade 0 means that the growth status of plants is essentially consistent with those sprayed with the blank solvent (water); grade 1 means that the average of the damage levels of plants is less than 10%; grade 2 means that the average of the damage levels of plants is greater than 100%; grade 3 means that the average of the damage levels of plants is 100%; details: for The grade of pesticide damage/plant: grade 0 / The grade of pesticide damage/plant: grade 1 / The grade of pesticide damage/plant: grade 2 / The grade of pesticide damage/plant: grade 3: 7 DAT, number of plants of 16 per genotype, grades
# [3] = system: transgenic soybean plants; test: oxyfluorfen tolerance of transgenic soybean plants (spray, grade of pesticide damage); details: for The grade of pesticide damage/plant: grade 0 / The grade of pesticide damage/plant: grade 1 / The grade of pesticide damage/plant: grade 2 / The grade of pesticide damage/plant: grade 3: 7 DAT, number of plants of 16 per genotype, grades; for tolerance to oxyfluorfen: soybean
# [4] = system: Arabidopsis thaliana T1 plants; test: flumioxazin tolerance of transgenic Arabidopsis thaliana T1 plants (spray, grade of pesticide damage); details: 7 DAT, number of plants of 24 per genotype, grades
# Procedure, shortened: (§1)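 Read-out: injury grade at 7 DAT from injured vs total leaf area (0 = as water-sprayed; 1 = <10%; 3 = 100%); grades 0–1 were rated highly resistant. Plants were 18-day-old glufosinate-selected PPO-transgenic T1 lines plus controls, n = 24 per genotype. Doses: saflufenacil 25/100, sulfentrazone 450/900, flumioxazin 60/240, oxyfluorfen 180/720 g ai/ha.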
# [5] = system: Arabidopsis thaliana T1 plants; test: oxyfluorfen tolerance of transgenic Arabidopsis thaliana T1 plants (spray, grade of pesticide damage); details: 7 DAT, number of plants of 24 per genotype, grades
# Procedure, shortened: as §1
# [6] = system: Arabidopsis thaliana T1 plants; test: sulfentrazone tolerance of transgenic Arabidopsis thaliana T1 plants (spray, grade of pesticide damage); details: 7 DAT, number of plants of 24 per genotype, grades
# Procedure, shortened: as §1
# [7] = system: Arabidopsis thaliana T1 plants; test: saflufenacil tolerance of transgenic Arabidopsis thaliana T1 plants (spray, grade of pesticide damage); details: 7 DAT, number of plants of 24 per genotype, grades
# Procedure, shortened: as §1
molecule,measurement,setting,value
"PPO12A: nucleotide sequence encoding microbial protoporphyrinogen oxidase PPO12 (SEQ ID NO:12), Arabidopsis thaliana/soybean common codon usage bias (nucleic acid, The nucleotide sequence of PPO12A) DNA: ATGAAGAAAGCTCTTTTCCTGTACAGCTCGAGAGAAGGCCAGACAAAAAAGATTCTCAACTACATAGAAGGAGAGTTATCAAATTTTGAATGTGAATTGGTTGACCTTCACACGCTTGATGCTATTGATTTCTCCGTCTATGATCGGGTGCTCATTGGTGCTTCTATACGATATGGTCATTTGAACAAGAAGCTTTATCAGTTTATAGAGAACAACAGACAACAACTAGAGAATCATACCAAAGTTGCCTTCTTCTGCGTCAATCTTACTGCAAGGAAAGAAGATCAAGGAAAAGACACTCCTGAGGGGAGTGTTTACATCCAGAAATTTCTCAAGAAATCACCATGGCAACCGAAGTTGATTGGAGTTTTCGCGGGGGCATTATACTACCCTCGTTATGGATTCTTTGATAAGATGATGATCAAACTCATCATGACTTTAACTGATGGTGAAACCGACACAACAAAGGAAGTGGAGTATACAAATTGGAAAAAAGTATCTTTGTTTGCAAAGAAGTTTGCTGAGCTGTGA",The grade of pesticide damage/plant: grade 0,[1]; flumioxazin 120 g ai/ha (2×),16 plant
same,The grade of pesticide damage/plant: grade 1,[1]; flumioxazin 120 g ai/ha (2×),0 plant
same,The grade of pesticide damage/plant: grade 2,[1]; flumioxazin 120 g ai/ha (2×),0 plant
same,The grade of pesticide damage/plant: grade 3,[1]; flumioxazin 120 g ai/ha (2×),0 plant
same,The grade of pesticide damage/plant: grade 0,[1]; flumioxazin 240 g ai/ha (4×),16 plant
same,The grade of pesticide damage/plant: grade 1,[1]; flumioxazin 240 g ai/ha (4×),0 plant
same,The grade of pesticide damage/plant: grade 2,[1]; flumioxazin 240 g ai/ha (4×),0 plant
same,The grade of pesticide damage/plant: grade 3,[1]; flumioxazin 240 g ai/ha (4×),0 plant
same,tolerance to flumioxazin,"[1]; soybean, flumioxazin at different concentrations (120 and 240 g ai/ha)",high-resistant tolerance
same,The grade of pesticide damage/plant: grade 0,[2]; saflufenacil 50 g ai/ha (2×),16 plant
same,The grade of pesticide damage/plant: grade 1,[2]; saflufenacil 50 g ai/ha (2×),0 plant
same,The grade of pesticide damage/plant: grade 2,[2]; saflufenacil 50 g ai/ha (2×),0 plant
same,The grade of pesticide damage/plant: grade 3,[2]; saflufenacil 50 g ai/ha (2×),0 plant
same,The grade of pesticide damage/plant: grade 0,[2]; saflufenacil 100 g ai/ha (4×),16 plant
same,The grade of pesticide damage/plant: grade 1,[2]; saflufenacil 100 g ai/ha (4×),0 plant
same,The grade of pesticide damage/plant: grade 2,[2]; saflufenacil 100 g ai/ha (4×),0 plant
same,The grade of pesticide damage/plant: grade 3,[2]; saflufenacil 100 g ai/ha (4×),0 plant
same,tolerance to saflufenacil,"[2]; soybean, saflufenacil at four-fold field concentration (100 g ai/ha)",high-resistant tolerance
same,damage levels rated at grade,"[2]; soybean, saflufenacil at two-fold field concentration (50 g ai/ha)",0
same,tolerance to saflufenacil,"[2]; soybean, saflufenacil, compared with the control vector and CK",different extents of tolerance
same,The grade of pesticide damage/plant: grade 0,[3]; oxyfluorfen 360 g ai/ha (2×),16 plant
same,The grade of pesticide damage/plant: grade 1,[3]; oxyfluorfen 360 g ai/ha (2×),0 plant
same,The grade of pesticide damage/plant: grade 2,[3]; oxyfluorfen 360 g ai/ha (2×),0 plant
same,The grade of pesticide damage/plant: grade 3,[3]; oxyfluorfen 360 g ai/ha (2×),0 plant
same,The grade of pesticide damage/plant: grade 0,[3]; oxyfluorfen 720 g ai/ha (4×),16 plant
same,The grade of pesticide damage/plant: grade 1,[3]; oxyfluorfen 720 g ai/ha (4×),0 plant
same,The grade of pesticide damage/plant: grade 2,[3]; oxyfluorfen 720 g ai/ha (4×),0 plant
same,The grade of pesticide damage/plant: grade 3,[3]; oxyfluorfen 720 g ai/ha (4×),0 plant
same,tolerance to oxyfluorfen,[3]; oxyfluorfen at four-fold field concentration (720 g ai/ha),high-resistant tolerance
same,tolerance to oxyfluorfen,[3]; oxyfluorfen at two-fold field concentration (360 g ai/ha),high-resistant tolerance
same,The grade of pesticide damage/plant: grade 0,[4]; flumioxazin 60 g ai/ha (1×),24 plant
same,The grade of pesticide damage/plant: grade 1,[4]; flumioxazin 60 g ai/ha (1×),0 plant
same,The grade of pesticide damage/plant: grade 2,[4]; flumioxazin 60 g ai/ha (1×),0 plant
same,The grade of pesticide damage/plant: grade 3,[4]; flumioxazin 60 g ai/ha (1×),0 plant
same,The grade of pesticide damage/plant: grade 0,[4]; flumioxazin 240 g ai/ha (4×),24 plant
same,The grade of pesticide damage/plant: grade 1,[4]; flumioxazin 240 g ai/ha (4×),0 plant
same,The grade of pesticide damage/plant: grade 2,[4]; flumioxazin 240 g ai/ha (4×),0 plant
same,The grade of pesticide damage/plant: grade 3,[4]; flumioxazin 240 g ai/ha (4×),0 plant
same,The grade of pesticide damage/plant: grade 0,[5]; oxyfluorfen 180 g ai/ha (1×),24 plant
same,The grade of pesticide damage/plant: grade 1,[5]; oxyfluorfen 180 g ai/ha (1×),0 plant
same,The grade of pesticide damage/plant: grade 2,[5]; oxyfluorfen 180 g ai/ha (1×),0 plant
same,The grade of pesticide damage/plant: grade 3,[5]; oxyfluorfen 180 g ai/ha (1×),0 plant
same,The grade of pesticide damage/plant: grade 0,[5]; oxyfluorfen 720 g ai/ha (4×),20 plant
same,The grade of pesticide damage/plant: grade 1,[5]; oxyfluorfen 720 g ai/ha (4×),4 plant
same,The grade of pesticide damage/plant: grade 2,[5]; oxyfluorfen 720 g ai/ha (4×),0 plant
same,The grade of pesticide damage/plant: grade 3,[5]; oxyfluorfen 720 g ai/ha (4×),0 plant
same,The grade of pesticide: grade 0,[6]; sulfentrazone 450 g ai/ha (1×),24
same,The grade of pesticide: grade 1,[6]; sulfentrazone 450 g ai/ha (1×),0
same,The grade of pesticide: grade 2,[6]; sulfentrazone 450 g ai/ha (1×),0
same,The grade of pesticide: grade 3,[6]; sulfentrazone 450 g ai/ha (1×),0
same,The grade of pesticide: grade 0,[6]; sulfentrazone 900 g ai/ha (2×),23
same,The grade of pesticide: grade 1,[6]; sulfentrazone 900 g ai/ha (2×),1
same,The grade of pesticide: grade 2,[6]; sulfentrazone 900 g ai/ha (2×),0
same,The grade of pesticide: grade 3,[6]; sulfentrazone 900 g ai/ha (2×),0
same,The grade of pesticide damage/plant: grade 0,[7]; saflufenacil 25 g ai/ha (1×),24 plant
same,The grade of pesticide damage/plant: grade 1,[7]; saflufenacil 25 g ai/ha (1×),0 plant
same,The grade of pesticide damage/plant: grade 2,[7]; saflufenacil 25 g ai/ha (1×),0 plant
same,The grade of pesticide damage/plant: grade 3,[7]; saflufenacil 25 g ai/ha (1×),0 plant
same,The grade of pesticide damage/plant: grade 0,[7]; saflufenacil 100 g ai/ha (4×),0 plant
same,The grade of pesticide damage/plant: grade 1,[7]; saflufenacil 100 g ai/ha (4×),24 plant
same,The grade of pesticide damage/plant: grade 2,[7]; saflufenacil 100 g ai/ha (4×),0 plant
same,The grade of pesticide damage/plant: grade 3,[7]; saflufenacil 100 g ai/ha (4×),0 plant
